{"source": "the Human Domainome abundance scans (Beltran et al. 2025)", "parents": {"B1": {"name": "Chromodomain-helicase-DNA-binding protein 4, residues 623 to 675; numbered along this chain, Q14839 (parent)", "chain": "MIHRILNHSVDKKGHVHYLIKWRDLPYDQASWESEDVEIQDYDLFKQSYWNHR"}}, "note": "± gives the uncertainty stated by the source.", "data": [{"variants_of": "B1", "assay": "abundance fitness (aPCA) (normalised: wild type 0, dead -1); higher = more abundant; growth selection in yeast, the domain comes from the species named", "settings": "Homo sapiens", "values": [{"variant": "G14T", "abundance fitness": "-1.08 ± 0.14"}, {"variant": "G14K", "abundance fitness": "-0.404 ± 0.21"}, {"variant": "G14Q", "abundance fitness": "-0.714 ± 0.16"}, {"variant": "G14R", "abundance fitness": "-0.761 ± 0.1"}, {"variant": "G14D", "abundance fitness": "-0.727 ± 0.11"}, {"variant": "G14P", "abundance fitness": "-0.714 ± 0.11"}, {"variant": "G14N", "abundance fitness": "-0.451 ± 0.084"}, {"variant": "G14M", "abundance fitness": "-1.05 ± 0.2"}, {"variant": "G14E", "abundance fitness": "-1.12 ± 0.28"}, {"variant": "G14F", "abundance fitness": "-0.716 ± 0.11"}, {"variant": "G14C", "abundance fitness": "-0.785 ± 0.12"}, {"variant": "G14Y", "abundance fitness": "-0.634 ± 0.093"}, {"variant": "G14W", "abundance fitness": "-0.726 ± 0.18"}, {"variant": "G14I", "abundance fitness": "-0.656 ± 0.12"}, {"variant": "G14S", "abundance fitness": "-0.768 ± 0.087"}, {"variant": "G14H", "abundance fitness": "-0.86 ± 0.1"}, {"variant": "G14A", "abundance fitness": "-0.919 ± 0.13"}, {"variant": "R23E", "abundance fitness": "-0.279 ± 0.16"}, {"variant": "R23A", "abundance fitness": "-0.207 ± 0.11"}, {"variant": "R23L", "abundance fitness": "-0.219 ± 0.085"}, {"variant": "R23F", "abundance fitness": "-0.349 ± 0.11"}, {"variant": "R23I", "abundance fitness": "-0.161 ± 0.12"}, {"variant": "R23D", "abundance fitness": "-0.591 ± 0.18"}, {"variant": "R23G", "abundance fitness": "-0.481 ± 0.14"}, {"variant": "R23C", "abundance fitness": "-0.294 ± 0.11"}, {"variant": "R23K", "abundance fitness": "0.021 ± 0.14"}, {"variant": "R23H", "abundance fitness": "-0.164 ± 0.15"}, {"variant": "S9A", "abundance fitness": "-0.398 ± 0.16"}, {"variant": "S9N", "abundance fitness": "-0.484 ± 0.14"}, {"variant": "S9G", "abundance fitness": "-0.553 ± 0.098"}, {"variant": "S9Q", "abundance fitness": "-0.095 ± 0.12"}, {"variant": "S9V", "abundance fitness": "-0.407 ± 0.11"}, {"variant": "S9E", "abundance fitness": "-0.112 ± 0.14"}, {"variant": "S9D", "abundance fitness": "-0.341 ± 0.14"}, {"variant": "S9F", "abundance fitness": "-0.127 ± 0.1"}, {"variant": "S9R", "abundance fitness": "0.156 ± 0.076"}, {"variant": "S9M", "abundance fitness": "-0.105 ± 0.12"}, {"variant": "S9H", "abundance fitness": "-0.066 ± 0.11"}, {"variant": "S9P", "abundance fitness": "-0.766 ± 0.15"}, {"variant": "S9K", "abundance fitness": "0.139 ± 0.095"}, {"variant": "S9Y", "abundance fitness": "-0.177 ± 0.11"}, {"variant": "S9C", "abundance fitness": "-0.062 ± 0.11"}, {"variant": "S9W", "abundance fitness": "-0.198 ± 0.1"}, {"variant": "S9T", "abundance fitness": "-0.068 ± 0.096"}, {"variant": "S9L", "abundance fitness": "-0.158 ± 0.092"}, {"variant": "S9I", "abundance fitness": "-0.021 ± 0.11"}, {"variant": "V10T", "abundance fitness": "-0.093 ± 0.1"}, {"variant": "V10P", "abundance fitness": "-0.571 ± 0.12"}, {"variant": "V10F", "abundance fitness": "-0.207 ± 0.11"}, {"variant": "V10G", "abundance fitness": "-0.895 ± 0.11"}, {"variant": "V10C", "abundance fitness": "-0.562 ± 0.12"}, {"variant": "V10I", "abundance fitness": "-0.286 ± 0.097"}, {"variant": "V10D", "abundance fitness": "-0.682 ± 0.15"}, {"variant": "V10W", "abundance fitness": "-0.533 ± 0.13"}, {"variant": "V10H", "abundance fitness": "-0.557 ± 0.14"}, {"variant": "V10L", "abundance fitness": "-0.332 ± 0.08"}, {"variant": "V10S", "abundance fitness": "-0.47 ± 0.089"}, {"variant": "V10R", "abundance fitness": "-0.262 ± 0.085"}, {"variant": "V10Y", "abundance fitness": "0.115 ± 0.12"}, {"variant": "V10E", "abundance fitness": "-0.447 ± 0.12"}, {"variant": "V10Q", "abundance fitness": "-0.377 ± 0.14"}, {"variant": "V10N", "abundance fitness": "-0.714 ± 0.14"}, {"variant": "V10M", "abundance fitness": "-0.495 ± 0.1"}, {"variant": "V10K", "abundance fitness": "-0.144 ± 0.12"}, {"variant": "H8V", "abundance fitness": "-0.918 ± 0.092"}, {"variant": "H8Q", "abundance fitness": "-0.813 ± 0.2"}, {"variant": "H8P", "abundance fitness": "-0.831 ± 0.17"}, {"variant": "H8S", "abundance fitness": "-0.713 ± 0.11"}, {"variant": "H8I", "abundance fitness": "-0.645 ± 0.12"}, {"variant": "H8Y", "abundance fitness": "-0.803 ± 0.14"}, {"variant": "H8C", "abundance fitness": "-0.647 ± 0.15"}, {"variant": "H8R", "abundance fitness": "-0.634 ± 0.1"}, {"variant": "H8N", "abundance fitness": "-0.75 ± 0.17"}, {"variant": "H8D", "abundance fitness": "-0.92 ± 0.16"}, {"variant": "H8W", "abundance fitness": "-0.863 ± 0.15"}, {"variant": "H8L", "abundance fitness": "-0.806 ± 0.09"}, {"variant": "H8K", "abundance fitness": "-0.956 ± 0.24"}, {"variant": "H8G", "abundance fitness": "-0.832 ± 0.11"}, {"variant": "H8E", "abundance fitness": "-0.69 ± 0.17"}, {"variant": "H8F", "abundance fitness": "-0.875 ± 0.18"}, {"variant": "H8A", "abundance fitness": "-0.857 ± 0.14"}, {"variant": "H8M", "abundance fitness": "-0.847 ± 0.14"}, {"variant": "H8T", "abundance fitness": "-0.791 ± 0.21"}, {"variant": "D11C", "abundance fitness": "-0.403 ± 0.12"}, {"variant": "D11M", "abundance fitness": "-1.09 ± 0.28"}, {"variant": "D11W", "abundance fitness": "-0.694 ± 0.22"}, {"variant": "D11L", "abundance fitness": "-0.875 ± 0.1"}, {"variant": "D11V", "abundance fitness": "-0.951 ± 0.14"}, {"variant": "D11Y", "abundance fitness": "-0.792 ± 0.12"}, {"variant": "D11K", "abundance fitness": "-1.03 ± 0.36"}, {"variant": "D11R", "abundance fitness": "-0.762 ± 0.12"}, {"variant": "D11Q", "abundance fitness": "-0.928 ± 0.21"}, {"variant": "D11A", "abundance fitness": "-0.679 ± 0.12"}, {"variant": "D11P", "abundance fitness": "-0.913 ± 0.13"}, {"variant": "D11G", "abundance fitness": "-0.597 ± 0.15"}, {"variant": "D11I", "abundance fitness": "-0.812 ± 0.12"}, {"variant": "D11S", "abundance fitness": "-0.305 ± 0.084"}, {"variant": "D11N", "abundance fitness": "-0.201 ± 0.085"}, {"variant": "D11T", "abundance fitness": "-0.518 ± 0.097"}, {"variant": "D11E", "abundance fitness": "-0.499 ± 0.22"}, {"variant": "Y18Q", "abundance fitness": "-0.962 ± 0.2"}, {"variant": "Y18S", "abundance fitness": "-0.681 ± 0.12"}, {"variant": "Y18K", "abundance fitness": "-0.838 ± 0.17"}, {"variant": "Y18P", "abundance fitness": "-0.833 ± 0.14"}, {"variant": "Y18R", "abundance fitness": "-1.05 ± 0.14"}, {"variant": "Y18V", "abundance fitness": "-0.753 ± 0.11"}, {"variant": "Y18M", "abundance fitness": "-0.957 ± 0.19"}, {"variant": "Y18F", "abundance fitness": "-0.43 ± 0.15"}, {"variant": "Y18C", "abundance fitness": "-0.59 ± 0.18"}, {"variant": "Y18A", "abundance fitness": "-0.688 ± 0.11"}, {"variant": "Y18N", "abundance fitness": "-0.754 ± 0.18"}, {"variant": "Y18D", "abundance fitness": "-0.963 ± 0.17"}, {"variant": "Y18W", "abundance fitness": "-0.787 ± 0.17"}, {"variant": "Y18L", "abundance fitness": "-0.86 ± 0.11"}, {"variant": "Y18G", "abundance fitness": "-0.798 ± 0.14"}, {"variant": "Y18H", "abundance fitness": "-0.736 ± 0.2"}, {"variant": "N7S", "abundance fitness": "-0.112 ± 0.071"}, {"variant": "N7A", "abundance fitness": "-0.068 ± 0.097"}, {"variant": "N7R", "abundance fitness": "-0.263 ± 0.089"}, {"variant": "N7G", "abundance fitness": "-0.356 ± 0.12"}, {"variant": "N7M", "abundance fitness": "-0.529 ± 0.12"}, {"variant": "N7T", "abundance fitness": "-0.162 ± 0.077"}, {"variant": "N7L", "abundance fitness": "-0.438 ± 0.076"}, {"variant": "N7W", "abundance fitness": "-0.586 ± 0.19"}, {"variant": "N7D", "abundance fitness": "0.013 ± 0.11"}, {"variant": "N7E", "abundance fitness": "-0.317 ± 0.17"}, {"variant": "N7F", "abundance fitness": "-0.568 ± 0.089"}, {"variant": "N7C", "abundance fitness": "-0.45 ± 0.11"}, {"variant": "N7K", "abundance fitness": "-0.07 ± 0.14"}, {"variant": "N7H", "abundance fitness": "-0.26 ± 0.085"}, {"variant": "N7P", "abundance fitness": "-0.884 ± 0.098"}, {"variant": "N7Q", "abundance fitness": "-0.101 ± 0.13"}, {"variant": "N7Y", "abundance fitness": "-0.449 ± 0.09"}, {"variant": "N7V", "abundance fitness": "-0.724 ± 0.11"}, {"variant": "V16L", "abundance fitness": "-0.11 ± 0.093"}, {"variant": "V16I", "abundance fitness": "-0.059 ± 0.11"}, {"variant": "V16Y", "abundance fitness": "-0.016 ± 0.17"}, {"variant": "V16E", "abundance fitness": "-0.545 ± 0.2"}, {"variant": "V16M", "abundance fitness": "-0.053 ± 0.11"}, {"variant": "V16T", "abundance fitness": "-0.059 ± 0.1"}, {"variant": "V16K", "abundance fitness": "-0.088 ± 0.12"}, {"variant": "V16F", "abundance fitness": "-0.382 ± 0.16"}, {"variant": "V16Q", "abundance fitness": "-0.549 ± 0.16"}, {"variant": "V16R", "abundance fitness": "-0.309 ± 0.14"}, {"variant": "V16P", "abundance fitness": "-0.59 ± 0.16"}, {"variant": "V16S", "abundance fitness": "-0.745 ± 0.13"}, {"variant": "V16D", "abundance fitness": "-0.611 ± 0.17"}, {"variant": "V16C", "abundance fitness": "-0.22 ± 0.17"}, {"variant": "V16H", "abundance fitness": "-0.288 ± 0.16"}, {"variant": "V16A", "abundance fitness": "-0.516 ± 0.12"}, {"variant": "V16G", "abundance fitness": "-0.757 ± 0.15"}, {"variant": "V16W", "abundance fitness": "-0.715 ± 0.33"}, {"variant": "I20R", "abundance fitness": "-0.722 ± 0.092"}, {"variant": "I20Q", "abundance fitness": "-0.874 ± 0.21"}, {"variant": "I20L", "abundance fitness": "-0.622 ± 0.087"}, {"variant": "I20N", "abundance fitness": "-0.838 ± 0.15"}, {"variant": "I20E", "abundance fitness": "-0.842 ± 0.31"}, {"variant": "I20M", "abundance fitness": "-0.612 ± 0.14"}, {"variant": "I20K", "abundance fitness": "-0.878 ± 0.29"}, {"variant": "I20Y", "abundance fitness": "-0.825 ± 0.17"}, {"variant": "I20G", "abundance fitness": "-0.791 ± 0.12"}, {"variant": "I20F", "abundance fitness": "-0.946 ± 0.13"}, {"variant": "I20S", "abundance fitness": "-0.778 ± 0.092"}, {"variant": "I20C", "abundance fitness": "-0.686 ± 0.14"}, {"variant": "I20W", "abundance fitness": "-0.633 ± 0.18"}, {"variant": "I20T", "abundance fitness": "-0.885 ± 0.12"}, {"variant": "I20V", "abundance fitness": "-0.276 ± 0.088"}]}]}
